Experimental data published in article PMC5676748, “Structural basis for high-affinity actin binding revealed by a β-III-spectrin SCA5 missense mutation” (Nature Communications, 2017).

Biological target: rabbit skeletal muscle actin, filamentous (F-actin) (rabbit (Oryctolagus cuniculus), UniProt P68135 1-377)
Experiment: co-sedimentation; 3 µM ABD with F-actin from 0 to 140 µM in F-buffer (10 mM Tris pH 7.5, 150 mM NaCl, 0.5 mM ATP, 2 mM MgCl2, 1 mM DTT), 30 min at 23–24 °C, pelleted at 100,000 x g; unbound ABD in the supernatant quantified on Coomassie gels; fit to Y=X/(Kd+X)
Settings: both partners purified

B1: WT β-III-spectrin ABD (amino acids 1–284), pE-SUMO construct (domain or fragment)
chain: MSSTLSPTDFDSLEIQGQYSDINNRWDLPDSDWDNDSSSARLFERSRIKALADEREAVQKKTFTKWVNSHLARVTCRVGDLYSDLRDGRNLLRLLEVLSGEILPKPTKGRMRIHCLENVDKALQFLKEQKVHLENMGSHDIVDGNHRLTLGLVWTIILRFQIQDISVETEDNKEKKSAKDALLLWCQMKTAGYPNVNVHNFTTSWRDGLAFNAIVHKHRPDLLDFESLKKCNAHYNLQNAFNLAEKELGLTKLLDPEDVNVDQPDEKSIITYVATYYHYFSKMK
notes: also called WT ABD; pE-SUMO-ABD WT; source: E. coli BL21(DE3)pLysS, purified (Ni-NTA, Ulp1 cleavage, second Ni-NTA, Sephadex S100 gel filtration)
Kd: 75 µM
